Assay results taken from PMC7781310.

What was measured:
[1] = target: Wild type sACE2_(2)-IgG1 (human) (UniProt Q9BYF1); test: BLI
[2] = target: sACE2_(2).v2.4-IgG1 (human) (UniProt Q9BYF1); test: BLI

Substance | Kd [1] | koff [1] | Kd [2] | koff [2]
LYRa11 RBD-8h (domain or fragment) | 0.091 µM | 0.079 s⁻¹ | 0.0018 µM | 0.0025 s⁻¹
Rs4084 RBD-8h (domain or fragment) | 0.085 µM | 0.025 s⁻¹ | 0.0031 µM | 0.0015 s⁻¹
Rs4231 RBD-8h (domain or fragment) | 0.069 µM | 0.022 s⁻¹ | 0.0035 µM | 0.0016 s⁻¹
Rs7327 RBD-8h (domain or fragment) | 0.063 µM | 0.04 s⁻¹ | 0.0019 µM | 0.0018 s⁻¹
RsSHC014 RBD-8h (domain or fragment) | – | – | – | 0.002 s⁻¹
